In patent publication US20230002480A1:

How the values were obtained:
Assay in all cases: cell-based or functional assay
[1] = biological target: HIV-1 Env of pseudovirus BJOX028000.10.3 (clade CRF01_AE (T/F)) (HIV-1)
[2] = biological target: HIV-1 Env of pseudovirus BJOX010000.06.2 (clade CRF01_AE (T/F)) (HIV-1)
[3] = biological target: HIV-1 Env of pseudovirus R3265.c06 (clade CRF01_AE) (HIV-1)
[4] = biological target: HIV-1 Env of pseudovirus 620345.c01 (clade CRF01_AE) (HIV-1)
[5] = biological target: HIV-1 Env of pseudovirus X1193_c1 (clade G) (HIV-1)
[6] = biological target: HIV-1 Env of pseudovirus CNE5 (clade CRF01_AE) (HIV-1)
[7] = biological target: HIV-1 Env of pseudovirus BJOX025000.01.1 (clade CRF01_AE (T/F)) (HIV-1)
[8] = biological target: HIV-1 Env of pseudovirus BJOX009000.02.4 (clade CRF01_AE) (HIV-1)
[9] = biological target: HIV-1 Env of pseudovirus C1080.c03 (clade CRF01_AE) (HIV-1)

Which IC50, titer in TZM.bl cells [1] does the source give for PG16 (antibody) here?
The IC50, titer in TZM.bl cells was > 50 µg/mL.

What about the IC80, titer in TZM.bl cells [1] of the same substance?
The IC80, titer in TZM.bl cells was > 50 µg/mL.

And the IC50, titer in TZM.bl cells [2]?
Its IC50, titer in TZM.bl cells is 1.2 µg/mL.

And the IC80, titer in TZM.bl cells [2]?
Its IC80, titer in TZM.bl cells is > 50 µg/mL.

What about the IC50, titer in TZM.bl cells [3] of the same substance?
Its IC50, titer in TZM.bl cells is 0.016 µg/mL.

And the IC80, titer in TZM.bl cells [3]?
The IC80, titer in TZM.bl cells was 0.146 µg/mL.

And the IC50, titer in TZM.bl cells [4]?
The IC50, titer in TZM.bl cells was > 50 µg/mL.

And the IC80, titer in TZM.bl cells [4]?
The IC80, titer in TZM.bl cells was > 50 µg/mL.

And the IC50, titer in TZM.bl cells [5]?
Its IC50, titer in TZM.bl cells is 0.018 µg/mL.

And the IC80, titer in TZM.bl cells [5]?
Its IC80, titer in TZM.bl cells is 0.11 µg/mL.

And the IC50, titer in TZM.bl cells [6]?
Its IC50, titer in TZM.bl cells is 0.008 µg/mL.

What about the IC80, titer in TZM.bl cells [6] of the same substance?
The IC80, titer in TZM.bl cells was 0.033 µg/mL.

And the IC50, titer in TZM.bl cells [7]?
Its IC50, titer in TZM.bl cells is 0.071 µg/mL.

What about the IC80, titer in TZM.bl cells [7] of the same substance?
Its IC80, titer in TZM.bl cells is > 50 µg/mL.

What about the IC50, titer in TZM.bl cells [8] of the same substance?
Its IC50, titer in TZM.bl cells is 1.19 µg/mL.

And the IC80, titer in TZM.bl cells [8]?
The IC80, titer in TZM.bl cells was 22.1 µg/mL.

And the IC50, titer in TZM.bl cells [9]?
Its IC50, titer in TZM.bl cells is 0.001 µg/mL.

What about the IC80, titer in TZM.bl cells [9] of the same substance?
The IC80, titer in TZM.bl cells was 0.003 µg/mL.
